Experimental findings from patent US20230140293A1 are described below.

What all share (test): cell-based or functional assay
In assay [1] the target is HIV-1 Env 426c.TM4 (S278R.G471S.N460D.N463D), Env-pseudotyped virus produced in 293T cells (HIV-1 clade C strain 426c).
For assay [2], the target named is HIV-1 Env 426c.TM (N276D.N460D.N463D), Env-pseudotyped virus produced in 293S GnTI- cells (Man5-enriched) (HIV-1 clade C strain 426c).
Assay [3] deals with HIV-1 Env 426c.SM (N276D), Env-pseudotyped virus produced in 293S GnTI- cells (Man5-enriched) (HIV-1 clade C strain 426c).
In assay [4] the target is HIV-1 Env 426c, Env-pseudotyped virus produced in 293S GnTI- cells (Man5-enriched) (HIV-1 clade C strain 426c).
Assay [5] has as its target HIV-1 Env 426c.TM4 (S278R.G471S.N460D.N463D), Env-pseudotyped virus produced in 293S GnTI- cells (Man5-enriched) (HIV-1 clade C strain 426c).
For assay [6], the target named is HIV-1 Env 426c.DM (N460D.N463D), Env-pseudotyped virus produced in 293S GnTI- cells (Man5-enriched) (HIV-1 clade C strain 426c).
Assay [7] concerns the target HIV-1 Env 426c.DM (N460D.N463D), Env-pseudotyped virus produced in 293T cells (HIV-1 clade C strain 426c).
Assay [8] addresses CH0505TF Env, Env-pseudotyped virus produced in 293T cells (HIV-1).
In assay [9] the target is CH0505TF.gly4 Env, Env-pseudotyped virus produced in 293S GnTI- cells (Man5-enriched) (HIV-1).
For assay [10], the target named is CH0505TF.gly3.197 Env, Env-pseudotyped virus produced in 293S GnTI- cells (Man5-enriched) (HIV-1).
The target in assay [11] is CH0505TF.gly3.461 Env, Env-pseudotyped virus produced in 293T cells (HIV-1).
The target of assay [12] is CH0505TF.gly3.276 Env, Env-pseudotyped virus produced in 293S GnTI- cells (Man5-enriched) (HIV-1).
Assay [13] concerns the target HIV-1 Env 426c.SM (N276D), Env-pseudotyped virus produced in 293T cells (HIV-1 clade C strain 426c).
Assay [14] has as its target HIV-1 Env 426c.TM (N276D.N460D.N463D), Env-pseudotyped virus produced in 293T cells (HIV-1 clade C strain 426c).
The target in assay [15] is CH0505TF.G458Y Env, Env-pseudotyped virus produced in 293T cells (HIV-1).
For assay [16], the target named is CH0505TF.gly3.197 Env, Env-pseudotyped virus produced in 293T cells (HIV-1).
Assay [17] addresses CH0505TF.G458Y Env, Env-pseudotyped virus produced in 293S GnTI- cells (Man5-enriched) (HIV-1).
Assay [18] addresses CH0505TF.gly3.276 Env, Env-pseudotyped virus produced in 293T cells (HIV-1).
In assay [19] the target is CH0505TF.gly3.461 Env, Env-pseudotyped virus produced in 293S GnTI- cells (Man5-enriched) (HIV-1).
Assay [20] deals with CH0505TF.gly4 Env, Env-pseudotyped virus produced in 293T cells (HIV-1).
Assay [21] has as its target HIV-1 Env 426c, Env-pseudotyped virus produced in 293T cells (HIV-1 clade C strain 426c).
In assay [22] the target is CH0505TF Env, Env-pseudotyped virus produced in 293S GnTI- cells (Man5-enriched) (HIV-1).
Assay [23] concerns the target CH0505.w4.3 Env, Env-pseudotyped virus produced in 293T cells (HIV-1).
The target of assay [24] is HIV-1 426c.TM (N276D/N460D/N463D) Env on Env-pseudotyped virus produced in 293s/GnTI-/- cells (Man5-enrichment) (HIV-1).
For assay [25], the target named is HIV-1 clade C strain 426c Env on Env-pseudotyped virus produced in 293T cells (HIV-1).
For assay [26], the target named is HIV-1 426c.DM (N460D/N463D) Env on Env-pseudotyped virus produced in 293T cells (HIV-1).
For assay [27], the target named is HIV-1 clade C strain 426c Env on Env-pseudotyped virus produced in 293s/GnTI-/- cells (Man5-enrichment) (HIV-1).
For assay [28], the target named is HIV-1 426c.DM (N460D/N463D) Env on Env-pseudotyped virus produced in 293s/GnTI-/- cells (Man5-enrichment) (HIV-1).
Assay [29] has as its target HIV-1 426c.SM (N276D) Env on Env-pseudotyped virus produced in 293s/GnTI-/- cells (Man5-enrichment) (HIV-1).
The target of assay [30] is HIV-1 426c.SM (N276D) Env on Env-pseudotyped virus produced in 293T cells (HIV-1).
Assay [31] has as its target HIV-1 426c.TM (N276D/N460D/N463D) Env on Env-pseudotyped virus produced in 293T cells (HIV-1).

As for VRC018 (antibody), the IC50 (µg/ml) in TZM-bl in [1] is 0.005 µg/mL; in assay [2] it was 0.006 µg/mL; in assay [3], 0.01 µg/mL; in assay [4] it was 0.06 µg/mL; in [5] it was less than 0.002 µg/mL; in [6], 0.02 µg/mL.
As for 10E8 (antibody), the IC50 (µg/ml) in TZM-bl in assay [7] was 1.11 µg/mL; in assay [8] it was 4.4 µg/mL; in [9], 2.2 µg/mL; in assay [10], 4 µg/mL; in [1], 0.53 µg/mL; in [11], 3.3 µg/mL. In addition, the IC50 (µg/ml) in TZM-bl in assay [12] is 2.3 µg/mL; in assay [13], 1.26 µg/mL; in [14] it was 1.52 µg/mL; in [2], 0.51 µg/mL; in [3], 0.28 µg/mL; in [15] it was 1.1 µg/mL. The IC50 (µg/ml) in TZM-bl stood at 3.4 µg/mL in assay [16]; 2.1 µg/mL in [17]; 3.3 µg/mL in [18]; 2.5 µg/mL in assay [19]; 0.35 µg/mL in assay [4]; 0.19 µg/mL in assay [5]. The IC50 (µg/ml) in TZM-bl is 2.7 µg/mL in assay [20]; 0.45 µg/mL in [6]; 0.8 µg/mL in [21]; 2.2 µg/mL in [22]; 1.1 µg/mL in [23].
Consider PGDM1400 (antibody), for which the IC50 (µg/ml) in TZM-bl was greater than 25 µg/mL in assay [7]; 0.006 µg/mL in assay [8]; 0.007 µg/mL in assay [9]; 0.003 µg/mL in assay [10]; greater than 5 µg/mL in assay [1]; 0.04 µg/mL in [11]. Besides, the IC50 (µg/ml) in TZM-bl is 0.004 µg/mL in assay [12]; greater than 25 µg/mL in assay [13]; greater than 25 µg/mL in assay [14]; greater than 5 µg/mL in assay [2]; greater than 5 µg/mL in [3]; 0.006 µg/mL in [15]. The IC50 (µg/ml) in TZM-bl in assay [16] was 0.01 µg/mL; in [17] it was 0.002 µg/mL; in assay [18] it was 0.02 µg/mL; in [19], 0.008 µg/mL; in assay [4], greater than 5 µg/mL; in assay [5], greater than 5 µg/mL. Moreover, the IC50 (µg/ml) in TZM-bl in assay [20] is 0.016 µg/mL; in [6], greater than 5 µg/mL; in assay [21] it was greater than 25 µg/mL; in assay [22], 0.007 µg/mL. Also, the ID50/IC50 in TZM-bl is greater than 5 µg/mL in assay [24]; greater than 25 µg/mL in assay [25]; greater than 25 µg/mL in assay [26]; greater than 5 µg/mL in assay [27]; greater than 5 µg/mL in assay [28]; greater than 5 µg/mL in assay [29]. Besides, the ID50/IC50 in TZM-bl in assay [30] and in [31] was greater than 25 µg/mL in each case.
As for VRC23 (antibody), the IC50 (µg/ml) in TZM-bl was 0.082 µg/mL in [1]; 3.1 µg/mL in [2]; 0.1 µg/mL in assay [3]; 0.19 µg/mL in assay [4]; less than 0.002 µg/mL in [5]; 0.06 µg/mL in [6].
As for VRC34.1 (antibody), the ID50/IC50 in TZM-bl in [24] was determined as 0.07 µg/mL; in assay [25], 0.08 µg/mL; in assay [26], 0.09 µg/mL; in [27], 0.05 µg/mL; in assay [28], 0.04 µg/mL; in assay [29] it was 0.07 µg/mL. For the same substance, the ID50/IC50 in TZM-bl in assay [30] was 0.06 µg/mL; in [31], 0.08 µg/mL.
Regarding VRC07 (antibody), the IC50 (µg/ml) in TZM-bl in assay [1] was less than 0.002 µg/mL; in assay [2] it was 0.009 µg/mL; in assay [3], 0.02 µg/mL; in assay [4], 0.07 µg/mL; in assay [5], less than 0.002 µg/mL; in assay [6], 0.05 µg/mL.
Take VRC34.01 (antibody): the IC50 (µg/ml) in TZM-bl in [7] was determined as 0.09 µg/mL; in assay [8] it was 0.55 µg/mL; in [9], 0.14 µg/mL; in assay [10], 0.17 µg/mL; in [1], 0.13 µg/mL; in assay [11] it was 0.84 µg/mL. In addition, the IC50 (µg/ml) in TZM-bl was found to be 0.14 µg/mL in [12]; 0.06 µg/mL in [13]; 0.08 µg/mL in [14]; 0.07 µg/mL in assay [2]; 0.07 µg/mL in assay [3]; 0.21 µg/mL in assay [15]. Besides, the IC50 (µg/ml) in TZM-bl in [16] is 2.1 µg/mL; in [17] it was 0.03 µg/mL; in [18], 0.62 µg/mL; in assay [19], 0.17 µg/mL; in assay [4] it was 0.05 µg/mL; in [5] it was 0.07 µg/mL. Also, the IC50 (µg/ml) in TZM-bl in assay [20] was 0.94 µg/mL; in assay [6], 0.04 µg/mL; in assay [21] it was 0.08 µg/mL; in [22], 0.1 µg/mL; in assay [23], greater than 25 µg/mL.
Regarding VRC20 (VRC-PG20) (antibody), the IC50 (µg/ml) in TZM-bl was less than 0.002 µg/mL in assay [1]; 0.005 µg/mL in [2]; 0.004 µg/mL in assay [3]; 0.015 µg/mL in [4]; 0.008 µg/mL in assay [5]; 0.007 µg/mL in assay [6].
Take VRC04 (antibody): the IC50 (µg/ml) in TZM-bl in assay [1] is 0.013 µg/mL; in assay [2], 0.01 µg/mL; in assay [3] it was 0.02 µg/mL; in assay [4], 0.18 µg/mL; in [5], less than 0.002 µg/mL; in assay [6], 0.05 µg/mL.
Consider VRC03 (antibody), for which the IC50 (µg/ml) in TZM-bl in [1] is 0.003 µg/mL; in assay [2], 0.003 µg/mL; in assay [3], 0.003 µg/mL; in [4], 0.014 µg/mL; in assay [5], less than 0.002 µg/mL; in [6], 0.005 µg/mL.
